From publication PMC8009872, “Beam image-shift accelerated data acquisition for near-atomic resolution single-particle cryo-electron tomography” (Nature Communications, 2021)

Target: the molecule itself
Assay: cryo-EM structure

B1: protein VC1979 of Vibrio cholerae (dNTPase) (enzyme)
chain: QVSLNPEWLARNNDEHKIRRNDHRSPFQRDRARILHSAAFRRLQAKTQVHGTSLNDFHRTRLTHSLEAAQIGTGIVAQIKLKQPEFRELLPSDSLIDSLCLAHDIGHPPYGHGGEIALNYMMRDHGGFEGNAQTFRIVTSLEPYTEHHGMNLSRRTLLGLLKYPALLSATRAAIPPPAVAHQRQLKAKDWSPAKGIYDCDLASLDWVLEPLCESDRELLGQMRAEPSSPKEHRKTRFKSLDCSIMELADDIAYGVHDLEDAIVLGMVTRAQWQEAAAAQLAECGDPWFEEHIAELSEMLFSGKHYVRKDAIGGIVNALLTSISVKPVEAPFHNELLAFNAYIEPHMGNALEVLKHFVSQYVIQIPQVQRFEYKGQQLIMDLFEALSADPERLLPQATGEKWRKAQEQDEGMRVICDYIAAMTDAYAQRLHQQLFSAQSHY
  stoichiometry N: 6
